Here are results for 64 molecules from patent US20250145684A1 (IMMATICS BIOTECHNOLOGIES, published 2025).

To fix the notation:
B1: EEFLTPKKL (SEQ ID NO: 290) (peptide)
peptide: EEFLTPKKL
B2: YVYANHFTEA (SEQ ID NO: 291) (peptide)
peptide: YVYANHFTEA
notes: also called COL6A3-039
B3: DLKKTRVL (SEQ ID NO: 66) (peptide)
peptide: DLKKTRVL
B4: ELALRQTV (SEQ ID NO: 48) (peptide)
peptide: ELALRQTV
B5: LPKKMKLL (SEQ ID NO: 58) (peptide)
peptide: LPKKMKLL
B6: DGHMKVFSL (SEQ ID NO: 78) (peptide)
peptide: DGHMKVFSL
B7: MYRKEQYL (SEQ ID NO: 81) (peptide)
peptide: MYRKEQYL
B8: RLKVALSTL (SEQ ID NO: 45) (peptide)
peptide: RLKVALSTL
B9: FVLLRSVDL (SEQ ID NO: 83) (peptide)
peptide: FVLLRSVDL
B10: STMPKILAL (SEQ ID NO: 5) (peptide)
peptide: STMPKILAL
B11: YARLKNVLL (SEQ ID NO: 75) (peptide)
peptide: YARLKNVLL
B12: RPIHHPLVL (SEQ ID NO: 86) (peptide)
peptide: RPIHHPLVL
B13: MLHIKKAEV (SEQ ID NO: 60) (peptide)
peptide: MLHIKKAEV
B14: SRNPRGFFL (SEQ ID NO: 95) (peptide)
peptide: SRNPRGFFL
B15: NLLMRNVL (SEQ ID NO: 65) (peptide)
peptide: NLLMRNVL
B16: DQLLRHVM (SEQ ID NO: 94) (peptide)
peptide: DQLLRHVM
B17: LPKLPVPPL (SEQ ID NO: 77) (peptide)
peptide: LPKLPVPPL
B18: NRQKRFVL (SEQ ID NO: 6) (peptide)
peptide: NRQKRFVL
B19: TIGLGLHSL (SEQ ID NO: 90) (peptide)
peptide: TIGLGLHSL
B20: ERRVKVSSL (SEQ ID NO: 51) (peptide)
peptide: ERRVKVSSL
B21: NVKIRFLE (SEQ ID NO: 99) (peptide)
peptide: NVKIRFLE
B22: LMKEKIQEM (SEQ ID NO: 93) (peptide)
peptide: LMKEKIQEM
B23: MLLCLSLEL (SEQ ID NO: 88) (peptide)
peptide: MLLCLSLEL
B24: RPKGTPPL (SEQ ID NO: 70) (peptide)
peptide: RPKGTPPL
B25: LPLAHHIQL (SEQ ID NO: 72) (peptide)
peptide: LPLAHHIQL
B26: HIRIKHTF (SEQ ID NO: 71) (peptide)
peptide: HIRIKHTF
B27: HPRLKVNLL (SEQ ID NO: 76) (peptide)
peptide: HPRLKVNLL
B28: HSRVKLAQL (SEQ ID NO: 47) (peptide)
peptide: HSRVKLAQL
B29: ILCGSRKMPL (SEQ ID NO: 56) (peptide)
peptide: ILCGSRKMPL
B30: DLKIPRYPV (SEQ ID NO: 68) (peptide)
peptide: DLKIPRYPV
B31: SIKKELVVL (SEQ ID NO: 61) (peptide)
peptide: SIKKELVVL
B32: DLRKLKRQL (SEQ ID NO: 53) (peptide)
peptide: DLRKLKRQL
B33: SIRKRPML (SEQ ID NO: 82) (peptide)
peptide: SIRKRPML
B34: YITRQFVQF (SEQ ID NO: 84) (peptide)
peptide: YITRQFVQF
B35: VLLMGPLHL (SEQ ID NO: 100) (peptide)
peptide: VLLMGPLHL
B36: FLRVFTDSL (SEQ ID NO: 49) (peptide)
peptide: FLRVFTDSL
B37: MPMQDIKMIL (SEQ ID NO: 91) (peptide)
peptide: MPMQDIKMIL
B38: QILQHHVL (SEQ ID NO: 87) (peptide)
peptide: QILQHHVL
B39: ELARQRLL (SEQ ID NO: 69) (peptide)
peptide: ELARQRLL
B40: FVRPKLVTI (SEQ ID NO: 8) (peptide)
peptide: FVRPKLVTI
B41: RPAGVFEL (SEQ ID NO: 96) (peptide)
peptide: RPAGVFEL
B42: YVKRKTNVL (SEQ ID NO: 63) (peptide)
peptide: YVKRKTNVL
B43: EVYLRMYQL (SEQ ID NO: 80) (peptide)
peptide: EVYLRMYQL
B44: ELILKHSL (SEQ ID NO: 52) (peptide)
peptide: ELILKHSL
B45: FDFRGKTKVF (SEQ ID NO: 59) (peptide)
peptide: FDFRGKTKVF
B46: HLTNRVLSL (SEQ ID NO: 44) (peptide)
peptide: HLTNRVLSL
B47: FILGREAGAL (SEQ ID NO: 64) (peptide)
peptide: FILGREAGAL
B48: VLLSRRTAL (SEQ ID NO: 55) (peptide)
peptide: VLLSRRTAL
B49: QKPRKKKL (SEQ ID NO: 85) (peptide)
peptide: QKPRKKKL
B50: MPLKHYLL (SEQ ID NO: 57) (peptide)
peptide: MPLKHYLL
B51: LLKGKPRAL (SEQ ID NO: 9) (peptide)
peptide: LLKGKPRAL
B52: DLKKLVDSL (SEQ ID NO: 43) (peptide)
peptide: DLKKLVDSL
B53: RLKLRYEGL (SEQ ID NO: 74) (peptide)
peptide: RLKLRYEGL
B54: MFPARGVPL (SEQ ID NO: 73) (peptide)
peptide: MFPARGVPL
B55: TLRLLVAAL (SEQ ID NO: 50) (peptide)
peptide: TLRLLVAAL
B56: DLSRRDVSL (SEQ ID NO: 54) (peptide)
peptide: DLSRRDVSL
B57: EPVNTNVVL (SEQ ID NO: 98) (peptide)
peptide: EPVNTNVVL
B58: AARLRPAL (SEQ ID NO: 7) (peptide)
peptide: AARLRPAL
B59: FMLAKEASL (SEQ ID NO: 62) (peptide)
peptide: FMLAKEASL
B60: TLKAMVQAW (SEQ ID NO: 92) (peptide)
peptide: TLKAMVQAW
B61: VPYTKVQL (SEQ ID NO: 89) (peptide)
peptide: VPYTKVQL
B62: DLRNKIIAA (SEQ ID NO: 46) (peptide)
peptide: DLRNKIIAA
B63: GLARIYSF (SEQ ID NO: 79) (peptide)
peptide: GLARIYSF
B64: DMNTKRAIHTL (SEQ ID NO: 67) (peptide)
peptide: DMNTKRAIHTL

The first experiment has as its target T1, HLA-B*44:05 (human).
T1 construct: MHC monomer first loaded with a UV-sensitive peptide that is cleaved by UV light and exchanged for the test peptide
The experiment in a line: UV peptide exchange ELISA. Summed up: (§1)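 Peptide–MHC complexes formed by UV-mediated exchange of a photocleavable ligand; exchange yield assessed by ELISA on streptavidin-coated plates, samples diluted 100-fold. Bound complexes detected with HRP anti-β2m and TMB at 450 nm against HLA-A*02:01 monomer standards (15–500 ng/ml).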
In the case of B1, the binding result is listed as “binds”.

For another experiment, the target named is T2, HLA-A*02:01 (human).
T2 construct: MHC monomer first loaded with a UV-sensitive peptide that is cleaved by UV light and exchanged for the test peptide
As to the kind of experiment: UV peptide exchange ELISA. In a few lines:
as §1
Regarding B2, the binding result is reported as “binds”.

The target in the next experiment is T3, HLA-B*08:01 (human).
T3 construct: MHC monomer first loaded with a UV-sensitive peptide that is cleaved by UV light and exchanged for the test peptide
The experiment in a line: UV peptide exchange ELISA. Summed up: as §1
For B3, the peptide exchange yield was in the range of 20 to 50%.

B4 gave a peptide exchange yield of 20 to 50%.

Consider B5, for which the peptide exchange yield lay within 20 to 50%.

As for B6, the peptide exchange yield lay within 20 to 50%.

In turn, B7 registered a peptide exchange yield of 20 to 50%.

Molecule B8 showed a peptide exchange yield of 50 to 75%.

Molecule B9 came in with a peptide exchange yield of 50 to 75%.

In turn, B10 registered a peptide exchange yield of 50 to 75%.

On to B11, for which the peptide exchange yield was 50 to 75%.

B12 returned a peptide exchange yield of 20 to 50%.

In the case of B13, the peptide exchange yield was in the range of 50 to 75%.

B14 displayed a peptide exchange yield of 20 to 50%.

The molecule B15 returned a peptide exchange yield of 20 to 50%.

In turn, B16 came in with a peptide exchange yield of 50 to 75%.

In turn, B17 gave a peptide exchange yield of 50 to 75%.

B18 returned a peptide exchange yield of 20 to 50%.

Turning to B19, the peptide exchange yield was in the range of 20 to 50%.

For the molecule B20, the peptide exchange yield fell in the range of 50 to 75%.

In the case of B21, the peptide exchange yield was 20 to 50%.

In turn, B22 displayed a peptide exchange yield of 50 to 75%.

Regarding B23, the peptide exchange yield is 20 to 50%.

Consider B24, for which the peptide exchange yield was 20 to 50%.

Turning to B25, the peptide exchange yield lay within 50 to 75%.

As for B26, the peptide exchange yield was 50 to 75%.

The molecule B27 yielded a peptide exchange yield of 50 to 75%.

Molecule B28 came in with a peptide exchange yield of 20 to 50%.

B29: the peptide exchange yield was 20 to 50%.

In turn, B30 had a peptide exchange yield of 50 to 75%.

B31 yielded a peptide exchange yield of 20 to 50%.

B32 displayed a peptide exchange yield of 20 to 50%.

Turning to B33, the peptide exchange yield was in the range of 20 to 50%.

Molecule B34 gave a peptide exchange yield of 20 to 50%.

B35 gave a peptide exchange yield of 20 to 50%.

With B36, the peptide exchange yield lay in the range of 50 to 75%.

For B37, the peptide exchange yield fell in the range of 20 to 50%.

Regarding B38, the peptide exchange yield is 50 to 75%.

The molecule B39 showed a peptide exchange yield of 20 to 50%.

B40 returned a peptide exchange yield of 50 to 75%.

B41: the peptide exchange yield lay within 20 to 50%.

Take B42: the peptide exchange yield fell in the range of 20 to 50%.

B43: the peptide exchange yield fell in the range of 50 to 75%.

As for B44, the peptide exchange yield was in the range of 50 to 75%.

The molecule B45 had a peptide exchange yield of 20 to 50%.

The molecule B46 registered a peptide exchange yield of 50 to 75%.

In the case of B47, the peptide exchange yield was 20 to 50%.

Turning to B48, the peptide exchange yield fell in the range of 20 to 50%.

The molecule B49 yielded a peptide exchange yield of 20 to 50%.

Regarding B50, the peptide exchange yield lay in the range of 20 to 50%.

Molecule B51 displayed a peptide exchange yield of 20 to 50%.

Molecule B52 showed a peptide exchange yield of 50 to 75%.

Molecule B53 registered a peptide exchange yield of 50 to 75%.

B54 displayed a peptide exchange yield of 20 to 50%.

With B55, the peptide exchange yield fell in the range of 50 to 75%.

Take B56: the peptide exchange yield was 20 to 50%.

For the molecule B57, the peptide exchange yield lay in the range of 20 to 50%.

Regarding B58, the peptide exchange yield is 20 to 50%.

The molecule B59 returned a peptide exchange yield of 20 to 50%.

Turning to B60, the peptide exchange yield lay in the range of 50 to 75%.

Consider B61, for which the peptide exchange yield lay within 50 to 75%.

With B62, the peptide exchange yield lay within 50 to 75%.

As for B63, the peptide exchange yield lay within 20 to 50%.

Take B64: the peptide exchange yield fell in the range of 20 to 50%.
